From US20200239573A1 (CRESCENDO BIOLOGICS, published 2020)
Where a chain is given by its changes, count along the chain named. Where “and” joins values, the source holds several entries; their conditions need not be identical. Equal entries are not always repeated.

B1: Humabody® 1.89 (VHH)
VHH: EVQLVESGGGLVKPGGSLRLSCAASGFTFSDYSMTWMRQAPGKGLEWVSYISSGGGVKFYADSVKGRFTISRDNAKNSLYLQMNSLRAEDTAVYYCAREAPLRLGESPHDAFDISGQGTMVTVSS
notes: human VH single domain antibody
B2: Humabody® 1.47 (VHH)
VHH: B1 VHH with E1Q, Y32N, T35S, K58I, E89D, S115W
notes: as for B1
B3: Humabody® 1.43 (VHH)
VHH: B1 VHH with E1Q, Y32S, K58I, E89D, S115W
notes: as for B1
B4: Humabody® 1.42 (VHH)
VHH: B1 VHH with E1Q, Y32N, E89D, S115W
notes: as for B1
B5: Humabody® 1.44 (VHH)
VHH: B1 VHH with E1Q, Y32N, G56A, E89D, S115W
notes: as for B1
B6: Humabody® 1.53 (VHH)
VHH: B1 VHH with E1Q, Y32N, G56S, E89D, S115W
notes: as for B1
B7: Humabody® 1.45 (VHH)
VHH: B1 VHH with E1Q, T35S, K58I, E89D, S115W
notes: as for B1
B8: Humabody® 1.59 (VHH)
VHH: B1 VHH with E1Q, Y32N, T35S, G56S, E89D, S115W
notes: as for B1
B9: Humabody® 1.94 (VHH)
VHH: B1 VHH with Y32W
notes: as for B1
B10: Humabody® 1.101 (VHH)
VHH: B1 VHH with Y32F
notes: as for B1
B11: Humabody® 1.46 (VHH)
VHH: B1 VHH with E1Q, Y32S, T35S, K58I, E89D, S115W
notes: as for B1
B12: Humabody® 1.51 (VHH)
VHH: B1 VHH with E1Q, Y32S, G56A, A61T, E89D, S115W
notes: as for B1
B13: Humabody® 1.58 (VHH)
VHH: B1 VHH with E1Q, Y32N, S33T, S53T, E89D, S115W
notes: as for B1
B14: Humabody® 1.3 (VHH)
VHH: B1 VHH with E1Q, S33T, S53T, G56S, V57I, F59Y, A61T, E89D, S115W
notes: as for B1
B15: Humabody® 1.8 (VHH)
VHH: B1 VHH with S33T, S53T, G56S, V57I, F59Y, A61T, E89G, S115W
notes: as for B1
B16: Humabody® 1.7 (VHH)
VHH: B1 VHH with S33T, S53T, G56T, V57I, F59Y, A61T, E89D, S115W
notes: as for B1
B17: Humabody® 1.6 (VHH)
VHH: B1 VHH with V5L, S33T, S53T, G56T, V57I, F59Y, A61T, N84S, E89D, S115W
notes: as for B1
B18: Humabody® 1.10 (VHH)
VHH: QVQLVESGGGLVKPGGSLRLSCAASGFTFSDYTMSWMRQAPGKGLEWISYISLGGNTKYYTDSVKGRFTISRDNAKNSLYLQMNSLRADDTAVYYCAREAPLRLGESPHDAFDIWGQGTMVTVSS
notes: as for B1
B19: Humabody® 1.84 (VHH)
VHH: B1 VHH with Y32E, A61T
notes: as for B1
B20: Humabody® 1.104 (VHH)
VHH: B1 VHH with Y32E, M34F, A61T
notes: as for B1
B21: Humabody® 1.105 (VHH)
VHH: B1 VHH with Y32E, M34L, A61T
notes: as for B1
B22: 1.77-4GS-non-blocking VH (3) (bispecific antibody)
chain: EVQLVESGGGLVKPGGSLRLSCAASGFTFSDSSMTWMRQAPGKGLEWVSYISSGGGVKFYTDSVKGRFTISRDNAKNSLYLQMNSLRAEDTAVYYCAREAPLRLGESPHDAFDISGQGTMVTVSSGGGGSGGGGSGGGGSGGGGSEVQLVESGGGLVQPGRSLRLSCAASGFTFDDYAMHWVRQAPGKDLEWVSGISWNGGSMGYAASVKGRFTISRDNAKNSLYLQMNSLRAEDTALYYCVREKGPGLTGSTADYYGLDVWGQGTMVTVSS
B23: Humabody® 1.72 (VHH)
VHH: B1 VHH with E1Q, Y32S, T35S, K58I, E89D
B24: Humabody® 1.71 (VHH)
VHH: B1 VHH with E1Q, S30G, D31G, Y32S, A61T, E89D
B25: Humabody® 1.69 (VHH)
VHH: B1 VHH with E1Q, Y32N, T35S, K58I, E89D
B26: Humabody® 1.67 (VHH)
VHH: B1 VHH with E1Q, D31G, Y32S, K58I, E89D
B27: Humabody® 1.70 (VHH)
VHH: B1 VHH with E1Q, S30G, Y32S, G56A, A61T, E89D
B28: Humabody® 1.48 (VHH)
VHH: B1 VHH with E1Q, Y32S, E89D, S115W
notes: as for B1
B29: Humabody® 1.55 (VHH)
VHH: B1 VHH with E1Q, Y32N, E89D
notes: as for B1
B30: Humabody® 1.41 (VHH)
VHH: B1 VHH with E1Q, Y32N, K58I, E89D, S115W
notes: as for B1
B31: Humabody® 1.49 (VHH)
VHH: B1 VHH with E1Q, Y32S, T35S, S53T, E89D, S115W
notes: as for B1
B32: Humabody® 1.52 (VHH)
VHH: B1 VHH with E1Q, Y32N, F59Y, E89D, S115W
notes: as for B1
B33: Humabody® 1.56 (VHH)
VHH: B1 VHH with E1Q, Y32N, G56A, E89D, S115L
notes: as for B1
B34: Humabody® 1.50 (VHH)
VHH: B1 VHH with E1Q, Y32N, G56T, V57I, E89D, S115W
notes: as for B1
B35: Humabody® 1.54 (VHH)
VHH: B1 VHH with E1Q, Y32D, K58I, E89D, S115W
notes: as for B1

Target: T1, human PD-1 expressed on cells (CHO human PD-1 cells) (human, UniProt Q15116 21-288)
T1 construct: also called CHO TREX human PD-1 cell line; CHO PD-1
T1 sequence (Q15116 21-288): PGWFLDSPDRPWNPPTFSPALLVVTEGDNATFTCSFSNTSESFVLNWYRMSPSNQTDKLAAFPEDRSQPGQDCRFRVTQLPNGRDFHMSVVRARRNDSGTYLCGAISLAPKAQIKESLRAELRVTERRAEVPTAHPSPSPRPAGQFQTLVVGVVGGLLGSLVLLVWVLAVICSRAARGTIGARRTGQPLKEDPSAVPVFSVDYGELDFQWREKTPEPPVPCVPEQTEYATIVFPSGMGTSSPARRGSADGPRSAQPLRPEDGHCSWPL
Assay: FMAT epitope competition on CHO human PD-1 cells; competitor 1 nM 1.1-Strep
Experimental: For the epitope competition assay reagents were prepared in FMAT assay buffer. […] Plates were incubated for a minimum of 1.5 hours at room temperature then fluorescence measured in the FL2 (502 nm-537 nm) and FL5 (677-800 nm) channels on the Mirrorball plate reader (TTP) following excitation at 488 nm and 640 nm. Data was expressed as a % of the total binding control (i.e. % control) after subtraction of the background signal determined from the non-specific binding control wells.

| IC50 | Binder |
| --- | --- |
| 2.4 nM | B1 |
| 4.4 nM | B2 |
| 1.3 nM | B3 |
| 3.5 nM | B4 |
| 1.9 nM | B5 |
| 5.4 nM | B6 |
| 2.5 nM | B7 |
| 7.8 nM | B8 |
| 4.2 nM | B9 |
| 3 nM | B10 |
| 1.8 nM | B11 |
| 4.7 nM | B12 |
| 4.6 nM | B13 |

Target: T2, recombinant human PD-1 Fc chimera (human, UniProt Q15116 25-167)
T2 construct: Bought protein; also called human PD-1-huFc; huPD-1-Fc; not shown: human Fc
T2 sequence (Q15116 25-167 limits assumed, change not shown): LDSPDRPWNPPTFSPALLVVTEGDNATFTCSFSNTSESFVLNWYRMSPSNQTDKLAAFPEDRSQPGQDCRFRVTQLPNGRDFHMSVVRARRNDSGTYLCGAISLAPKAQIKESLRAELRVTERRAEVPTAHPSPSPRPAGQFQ
Assay: HTRF inhibition; strep-tagged PD-L1 vs PD-1-Fc
Experimental: All samples and reagents were prepared in HTRF assay buffer containing PBS, 0.1% (w/v) BSA and 0.4M Potassium Fluoride. […] Total binding controls containing periplasmic extract sample buffer and non-specific binding controls containing excess untagged competitor were set up on each plate for data normalisation. Time-resolved fluorescent emission at 620 nm and 665 nm was measured following excitation at 337 nm on the BMG PHERAstar plate reader. Data was expressed as a % of the total binding control (% control) after subtraction of the background signal determined from the non-specific binding control wells.

| IC50 | Binder |
| --- | --- |
| 2.3 nM | B14 |
| 28.8 nM | B15 |
| 4.4 nM | B16 |
| 13.1 nM | B17 |
| 54.1 nM | B18 |

Target: T3, Strep tagged recombinant human PD-1 (human, UniProt Q15116 25-170, limits assumed)
T3 construct: the whole entry is named; also called strep tagged human PD-1; not shown: Strep tag
T3 sequence (Q15116 25-170 limits assumed): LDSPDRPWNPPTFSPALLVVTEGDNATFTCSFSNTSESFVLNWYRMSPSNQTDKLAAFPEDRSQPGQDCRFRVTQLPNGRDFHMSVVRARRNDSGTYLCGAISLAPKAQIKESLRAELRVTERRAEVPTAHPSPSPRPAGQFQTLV
Assay: SPR Biacore T200, strep-tagged PD-1 amine-coupled, single cycle kinetics
Experimental: Single cycle kinetics assays were used to study the interaction between human PD-1 with Humabody® on a Biacore T200 instrument (GE Healthcare). Strep tagged recombinant human PD-1 was amine coupled to one flow cell of a CM-5 chip to create a low density surface (14 RU) using standard Biacore reagents. For the reference flow cell, a blank immobilisation was carried out. A five-point, three-fold dilution series of each Humabody® was made with a top concentration of 25 nM. The binding kinetics were followed by flowing the Humabody® over the chip surface in HBS EP+ buffer at a flow rate of 30 μl/min. The contact time for each of the association steps was 180 seconds and the dissociation step was 3300 seconds. The data was fitted to a 1:1 binding model after double reference subtraction using the Biacore T200 Evaluation software.

| Kd | koff | kon | Binder |
| --- | --- | --- | --- |
| 0.091 nM | 7.6e-05 s⁻¹ | 830000 M⁻¹ s⁻¹ | B19 |
| 0.0342 nM | 5.6e-05 s⁻¹ | 1.6e+06 M⁻¹ s⁻¹ | B1 |
| 0.08 nM | 6.3e-05 s⁻¹ | 780000 M⁻¹ s⁻¹ | B20 |
| 0.091 nM | 8.7e-05 s⁻¹ | 950000 M⁻¹ s⁻¹ | B21 |
| 0.063 nM | 3.5e-05 s⁻¹ | 550000 M⁻¹ s⁻¹ | B22 |

Target: T1, human PD-1 expressed on cells (CHO …)
Assay: cell-based or functional assay

| Reporter Assay EC50 | Binder |
| --- | --- |
| 26.1 nM | B23 |
| 7.43 nM | B24 |
| 35 nM | B25 |
| 12 nM | B26 |
| 29 nM | B27 |
| 18 nM | B28 |
| 19 nM | B1 |
| 27 nM | B2 |
| 12 nM | B3 |
| 8.6 nM | B4 |
| 41 nM | B5 |
| 14 nM | B6 |
| 74 nM | B7 |
| 24 nM | B8 |
| 45 nM | B11 |
| 23 nM | B12 |
| 7.1 nM | B13 |

Target: T2, recombinant human PD-1 Fc chimera
Assay: SPR Biacore T200, PD-1-huFc amine-coupled, single cycle kinetics
Experimental: Binding kinetics of certain VH single domain antibodies binding to human PD-1-huFc were measured by surface plasmon resonance (SPR) technology using Biacore T200 instrument (GE Healthcare). Recombinant human PD-1-huFc was immobilized by standard amine coupling to CM5 sensorschip (GE Healthcare) using in range of 0.1-0.01 mg/ml solution of antigen in 10 mM sodium acetate at pH 5.5. For the reference flow cell, a blank immobilisation was carried out. Single cycle kinetics assays were used to study the interaction, a five point, three-fold dilution series of each Humabody® was made with a top concentration of 30 nM. The binding kinetics were followed by flowing the Humabody® over the chip surface in HBS EP+ buffer at a flow rate of 30 μl/min. The contact time for each of the association steps was 180 seconds and the dissociation step was varied between 1200-3600 seconds. The data was fitted to a 1:1 binding model after double reference subtraction using the Biacore T200 Evaluation software.

| Kd | koff | kon | Binder |
| --- | --- | --- | --- |
| 0.106 nM | 5.24e-05 s⁻¹ | 496000 M⁻¹ s⁻¹ | B28 |
| 0.0364 nM | 1.95e-05 s⁻¹ | 535000 M⁻¹ s⁻¹ | B29 |
| 0.0681 nM | 2.79e-05 s⁻¹ | 410000 M⁻¹ s⁻¹ | B3 |
| 0.0505 nM | 2.69e-05 s⁻¹ | 532000 M⁻¹ s⁻¹ | B4 |
| 0.2 nM and 0.17 nM | 4.18e-05 s⁻¹ and 4e-05 s⁻¹ | 209000 M⁻¹ s⁻¹ and 235000 M⁻¹ s⁻¹ | B5 |
| 0.0552 nM | 2.96e-05 s⁻¹ |  | B30 |
| 0.11 nM | 2.89e-05 s⁻¹ | 263000 M⁻¹ s⁻¹ | B31 |
| 0.299 nM and 0.256 nM | 6.14e-05 s⁻¹ and 7.61e-05 s⁻¹ | 205000 M⁻¹ s⁻¹ and 297000 M⁻¹ s⁻¹ | B32 |
| 0.0355 nM | 1.53e-05 s⁻¹ | 432000 M⁻¹ s⁻¹ | B33 |
| 0.317 nM | 5.98e-05 s⁻¹ | 189000 M⁻¹ s⁻¹ | B12 |
| 0.0581 nM | 2.34e-05 s⁻¹ | 402000 M⁻¹ s⁻¹ | B34 |
| 0.0856 nM | 4.53e-05 s⁻¹ | 530000 M⁻¹ s⁻¹ | B35 |
